{"source": "patent US20170052184A1", "key": {"[1]": {"target": "92-133 biotin labeled HCV core peptide (hepatitis C virus) (UniProt P26664)"}, "[2]": {"target": "C113T109N biotin labeled HCV core peptide (hepatitis C virus)"}, "[3]": {"target": "Mut1T110N biotin labeled HCV core peptide (hepatitis C virus)"}, "[4]": {"target": "Mut6T110S biotin labeled HCV core peptide (hepatitis C virus)"}, "[5]": {"target": "92-133 biotin labeled HCV core peptide (hepatitis C virus) (UniProt P26664)", "assay": "EIA; Ab 250 ng/mL captured on anti-mouse Fc; bt-peptide 500 ng/mL"}, "[6]": {"target": "C113T109N biotin labeled HCV core peptide (hepatitis C virus)", "assay": "EIA; Ab 250 ng/mL captured on anti-mouse Fc; bt-peptide 500 ng/mL"}, "[7]": {"target": "Mut1T110N biotin labeled HCV core peptide (hepatitis C virus)", "assay": "EIA; Ab 250 ng/mL captured on anti-mouse Fc; bt-peptide 500 ng/mL"}, "[8]": {"target": "Mut6T110S biotin labeled HCV core peptide (hepatitis C virus)", "assay": "EIA; Ab 250 ng/mL captured on anti-mouse Fc; bt-peptide 500 ng/mL"}, "[9]": {"target": "92-133 biotin labeled HCV core peptide (hepatitis C virus) (UniProt P26664)", "assay": "EIA; Ab 500 ng/mL captured on anti-mouse Fc; bt-peptide 500 ng/mL"}, "[10]": {"target": "C113T109N biotin labeled HCV core peptide (hepatitis C virus)", "assay": "EIA; Ab 500 ng/mL captured on anti-mouse Fc; bt-peptide 500 ng/mL"}, "[11]": {"target": "Mut1T110N biotin labeled HCV core peptide (hepatitis C virus)", "assay": "EIA; Ab 500 ng/mL captured on anti-mouse Fc; bt-peptide 500 ng/mL"}, "[12]": {"target": "Mut6T110S biotin labeled HCV core peptide (hepatitis C virus)", "assay": "EIA; Ab 500 ng/mL captured on anti-mouse Fc; bt-peptide 500 ng/mL"}, "[13]": {"target": "92-133 biotin labeled HCV core peptide (hepatitis C virus) (UniProt P26664)", "assay": "EIA; Ab 1000 ng/mL captured on anti-mouse Fc; bt-peptide 500 ng/mL"}, "[14]": {"target": "C113T109N biotin labeled HCV core peptide (hepatitis C virus)", "assay": "EIA; Ab 1000 ng/mL captured on anti-mouse Fc; bt-peptide 500 ng/mL"}, "[15]": {"target": "Mut1T110N biotin labeled HCV core peptide (hepatitis C virus)", "assay": "EIA; Ab 1000 ng/mL captured on anti-mouse Fc; bt-peptide 500 ng/mL"}, "[16]": {"target": "Mut6T110S biotin labeled HCV core peptide (hepatitis C virus)", "assay": "EIA; Ab 1000 ng/mL captured on anti-mouse Fc; bt-peptide 500 ng/mL"}, "[17]": {"target": "92-133 biotin labeled HCV core peptide (hepatitis C virus) (UniProt P26664)", "assay": "EIA; Ab 2000 ng/mL captured on anti-mouse Fc; bt-peptide 500 ng/mL"}, "[18]": {"target": "C113T109N biotin labeled HCV core peptide (hepatitis C virus)", "assay": "EIA; Ab 2000 ng/mL captured on anti-mouse Fc; bt-peptide 500 ng/mL"}, "[19]": {"target": "Mut1T110N biotin labeled HCV core peptide (hepatitis C virus)", "assay": "EIA; Ab 2000 ng/mL captured on anti-mouse Fc; bt-peptide 500 ng/mL"}, "[20]": {"target": "Mut6T110S biotin labeled HCV core peptide (hepatitis C virus)", "assay": "EIA; Ab 2000 ng/mL captured on anti-mouse Fc; bt-peptide 500 ng/mL"}}, "note": "Where two headings read alike, the source gives them in different places.", "data": [{"substance": "HCV C11-3 monoclonal antibody", "values": [{"measurement": "signal at 492 nm", "setting": "[1]", "value": 1.01, "unit": "OD 492 nm"}, {"measurement": "signal at 492 nm", "setting": "[2]", "value": 0.116, "unit": "OD 492 nm"}, {"measurement": "signal at 492 nm", "setting": "[3]", "value": 0.11, "unit": "OD 492 nm"}, {"measurement": "signal at 492 nm", "setting": "[4]", "value": 0.807, "unit": "OD 492 nm"}, {"measurement": "signal at 492 nm", "setting": "[5]", "value": 1.68, "unit": "OD 492 nm"}, {"measurement": "signal at 492 nm", "setting": "[6]", "value": 0.0963, "unit": "OD 492 nm"}, {"measurement": "signal at 492 nm", "setting": "[7]", "value": 0.0857, "unit": "OD 492 nm"}, {"measurement": "signal at 492 nm", "setting": "[8]", "value": 1.83, "unit": "OD 492 nm"}, {"measurement": "signal at 492 nm", "setting": "[9]", "value": 1.95, "unit": "OD 492 nm"}, {"measurement": "signal at 492 nm", "setting": "[10]", "value": 0.0882, "unit": "OD 492 nm"}, {"measurement": "signal at 492 nm", "setting": "[11]", "value": 0.0765, "unit": "OD 492 nm"}, {"measurement": "signal at 492 nm", "setting": "[12]", "value": 2.24, "unit": "OD 492 nm"}, {"measurement": "signal at 492 nm", "setting": "[13]", "value": 1.87, "unit": "OD 492 nm"}, {"measurement": "signal at 492 nm", "setting": "[14]", "value": 0.0806, "unit": "OD 492 nm"}, {"measurement": "signal at 492 nm", "setting": "[15]", "value": 0.0721, "unit": "OD 492 nm"}, {"measurement": "signal at 492 nm", "setting": "[16]", "value": 2.15, "unit": "OD 492 nm"}, {"measurement": "signal at 492 nm", "setting": "[17]", "value": 1.45, "unit": "OD 492 nm"}, {"measurement": "signal at 492 nm", "setting": "[18]", "value": 0.0707, "unit": "OD 492 nm"}, {"measurement": "signal at 492 nm", "setting": "[19]", "value": 0.0915, "unit": "OD 492 nm"}, {"measurement": "signal at 492 nm", "setting": "[20]", "value": 1.73, "unit": "OD 492 nm"}]}]}
